# Reference: paper PMC6298664
# Columns and labels:
# [1] = molecular target: Spermidine N-acetyltransferase (SpeG) from Escherichia coli (Escherichia coli str. K-12 substr. MG1655) (UniProt P0A951); test: SPR; SpeG (46 uM) amine-coupled; the surface exposed to 0.5 mM spermidine before the RcsB constructs were injected as analytes; 4 C; 10 mM HEPES pH 8.3, 100 mM sodium chloride; Reichert4SR; one-to-one model
# [2] = molecular target: Spermidine N-acetyltransferase (SpeG) from Escherichia coli (Escherichia coli str. K-12 substr. MG1655) (UniProt P0A951); test: SPR; SpeG (46 uM) amine-coupled to a carboxymethyl dextran chip; RcsB constructs as analytes; no spermidine; 4 C; 10 mM HEPES pH 8.3, 100 mM sodium chloride; Reichert SR7500DC; one-to-one model
# UniProt P0A951, sequence (P0A951 whole entry): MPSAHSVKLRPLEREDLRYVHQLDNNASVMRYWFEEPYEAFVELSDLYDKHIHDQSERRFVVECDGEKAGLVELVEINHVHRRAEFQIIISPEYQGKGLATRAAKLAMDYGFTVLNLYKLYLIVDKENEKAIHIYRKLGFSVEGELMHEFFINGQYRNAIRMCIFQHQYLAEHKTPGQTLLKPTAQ
Substance,Kd [1],Kd [2]
C-terminal DNA binding domain of RcsB (residues 128-216) (from UniProt P0DMC7 128-216) (domain or fragment),281 µM,67 µM
full-length RcsB from Escherichia coli (from UniProt P0DMC7 1-216) (natural protein),128 µM,
